In the assay the target is bovine pancreatic trypsin (bovine) (UniProt P00760). Nature of the assay: inhibition of bovine trypsin, substrate Boc-Leu-Gly-Arg-pNA, tight-binding fit (Morrison); apparent Ki (Kiapp).
Sequence of bovine pancreatic trypsin (bovine) (P00760 24-246): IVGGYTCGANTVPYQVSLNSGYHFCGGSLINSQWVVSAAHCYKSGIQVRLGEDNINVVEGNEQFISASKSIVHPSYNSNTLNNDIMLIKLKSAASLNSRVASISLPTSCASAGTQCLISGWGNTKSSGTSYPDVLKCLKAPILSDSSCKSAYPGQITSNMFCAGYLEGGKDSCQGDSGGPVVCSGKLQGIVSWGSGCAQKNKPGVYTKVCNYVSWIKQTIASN

As to “barnase′-McoEeTI fusion protein (from UniProt P00648 48-157)”, the Ki was 71 nM. On to “barnase′-EETI-II fusion protein (from UniProt P00648 48-157)”, for which the Ki is 9 nM.

Values taken from US20090130692A1.
